This is an account of results in patent US10828326B2, “Compositions and methods for treating and preventing venom related poisoning” (priority 2015, dated 2020).

For the assay, the system named is human plasma. Description: Thrombelastography of human plasma exposed to Crotalus atrox venom and/or tPA (Example II). It is filed as biochemical. To be noted: 0.5 μg/ml venom 5 min and/or 100 IU/ml tPA. As to the method: Two hundred mg of lyophilized, pooled venom was obtained from four western diamondback rattlesnakes (Crotalus atrox) for experimentation. Venom was reconstituted in calcium-free phosphate buffered saline (PBS, Sigma-Aldrich, Saint Louis, Mo., USA) at a concentration of 20 mg/ml, aliquoted, and then stored at −80° C. until experimentation at the University of Arizona.
Pooled normal plasma (George King Bio-Medical, Overland Park, Kans., USA) anticoagulated with sodium citrate was rapidly thawed at 37° C. and used for experimentation. To assess the effects of pretreatment of antifibrinolytic plasma proteins with iron, CO, or both, 1% additions of PBS, ferric chloride (FeCl3, 99.9% pure, Sigma-Aldrich, Saint Louis, Mo., USA) in PBS, or CORM-2 (tricarbonyldichlororuthenium (II) dimer, a CO releasing molecule, Sigma-Aldrich, Saint Louis, Mo., USA) dissolved in dimethyl sulfoxide (DMSO, Sigma-Aldrich, Saint Louis, Mo., USA) were used. […] Plasma was exposed to these various agents for at least 5 min prior to incubations with venom.
The final volume for all subsequently described plasma sample mixtures was 359.4 μl. […] The following elastic modulus-based parameters previously described (see, Nielsen V G, Pretorius E. Blood Coagul Fibrinolysis 2014; 25:695-702) were determined: time to maximum rate of thrombus generation (TMRTG): this is the time interval (min) observed prior to maximum speed of clot growth; maximum rate of thrombus generation (MRTG): this is the maximum velocity of clot growth observed (dynes/cm^2/sec); total thrombus generation (TTG, dynes/cm^2), the final viscoelastic resistance observed after clot formation; time to maximum rate of lysis (TMRL, min), maximum rate of lysis (MRL, dynes/cm^2/sec) and CLT (min). […]

[1] abbreviates: vs control conditions (combination: vs all other conditions).

B1: tPA: tissue type plasminogen activator, 580 IU/μg, Genentech; 100 IU/ml final concentration (protein, UniProt P00750 36-562, looked up)
Tissue-type plasminogen …: SYQVICRDEKTQMIYQQHQSWLRPVLRSNRVEYCWCNSGRAQCHSVPVKSCSEPRCFNGGTCQQALYFSDFVCQCPEGFAGKCCEIDTRATCYEDQGISYRGTWSTAESGAECTNWNSSALAQKPYSGRRPDAIRLGLGNHNYCRNPDRDSKPWCYVFKAGKYSSEFCSTPACSEGNSDCYFGNGSAYRGTHSLTESGASCLPWNSMILIGKVYTAQNPSAQALGLGKHNYCRNPDGDAKPWCHVLKNRRLTWEYCDVPSCSTCGLRQYSQPQFRIKGGLFADIASHPWQAAIFAKHRRSPGERFLCGGILISSCWILSAAHCFQERFPPHHLTVILGRTYRVVPGEEEQKFEVEKYIVHKEFDDDTYDNDIALLQLKSDSSRCAQESSVVRTVCLPPADLQLPDWTECELSGYGKHEALSPFYSERLKEAHVRLYPSSRCTSQHLLNRTVTDNMLCAGDTRSGGPQANLHDACQGDSGGPLVCLNDGRMTLVGIISWGLGCGQKDVPGVYTKVTNYLDWIRDNMRP
B1: under setting [1], the “maximum rate of thrombus generation (MRTG)” value is recorded as “did not decrease” and the “total thrombus generation (TTG)” value is given as “significantly decreased”. Further, for the setting “vs control conditions (combination: vs any other condition)”, the “time to maximum rate of thrombus generation (TMRTG)” value is “did not prolong”.
